Target: cerulean-tagged CaM (Cer-CaMWT) (UniProt P0DP23 1-149)
Test: FRET or BRET

Kd: ~2.3 µM
B1: Venus-tagged CaV1.1 CI (Ven-CaV1.1 CI) (domain or fragment)
chain: not shown
